Laboratory results published in patent publication US20160222109A1 (DYAX, published 2016).

Columns and labels:
soluble monkey FcRn [1] = molecular target: T1, soluble monkey FcRn (monkey (cyno), UniProt Q8SPV9 24-297; Q8SPW0 21-119); assay: Biacore, FcRn on chip, pH 6.0
T1 construct: also called cyno

[2] = molecular target: T2, soluble human FcRn (extra-cellular domain of heavy chain and β2M) (human, UniProt P55899 24-297; P61769 21-119); assay: Biacore, FcRn on chip, pH 6.0
T2 construct: also called shFcRn; soluble hFcRn

[3] = molecular target: T2, soluble human FcRn (extra-cellular …); assay: Biacore, FcRn on chip, pH 7.4; pH 7.4; n = 2
[4] = molecular target: T3, murine FcRn / murine β2M expressed on 3T3 cells (mouse, UniProt Q61559 22-365; P01887 21-119); assay: FACS binding, Alexa488-mAb, pH 7.4
T3 construct: whole, on cells; also called mouse FcRn; 3T3 FcRn cells
T3 sequence (looked up): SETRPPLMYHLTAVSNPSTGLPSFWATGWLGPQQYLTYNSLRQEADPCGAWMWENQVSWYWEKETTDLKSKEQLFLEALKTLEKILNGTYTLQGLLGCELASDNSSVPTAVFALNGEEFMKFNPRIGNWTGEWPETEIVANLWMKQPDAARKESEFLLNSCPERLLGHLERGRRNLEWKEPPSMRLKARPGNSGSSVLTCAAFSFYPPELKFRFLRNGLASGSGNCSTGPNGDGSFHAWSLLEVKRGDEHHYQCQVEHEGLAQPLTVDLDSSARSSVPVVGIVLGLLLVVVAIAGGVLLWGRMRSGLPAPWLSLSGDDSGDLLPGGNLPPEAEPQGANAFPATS
T3 sequence (b2m, looked up): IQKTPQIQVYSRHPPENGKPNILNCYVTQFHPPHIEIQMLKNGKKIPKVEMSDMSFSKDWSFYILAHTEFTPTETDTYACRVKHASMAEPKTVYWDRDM

[5] = molecular target: T4, rat FcRn / rat β2M expressed on cells (rat, UniProt P13599 23-366; P07151 21-119); assay: FACS binding, Alexa488-mAb, pH 7.4
T4 construct: also called rat FcRn (cells); rat fibroblasts expressing rat FcRn
T4 sequence: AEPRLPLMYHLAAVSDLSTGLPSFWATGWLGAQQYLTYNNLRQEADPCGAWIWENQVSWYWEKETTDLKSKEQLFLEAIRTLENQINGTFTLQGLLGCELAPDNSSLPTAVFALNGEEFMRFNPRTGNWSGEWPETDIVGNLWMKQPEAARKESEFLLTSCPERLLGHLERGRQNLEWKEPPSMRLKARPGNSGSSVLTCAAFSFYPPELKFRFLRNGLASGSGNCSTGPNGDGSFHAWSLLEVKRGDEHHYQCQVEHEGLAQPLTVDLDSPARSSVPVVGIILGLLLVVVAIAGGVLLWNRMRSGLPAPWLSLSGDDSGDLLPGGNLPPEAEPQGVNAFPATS
T4 sequence (b2m): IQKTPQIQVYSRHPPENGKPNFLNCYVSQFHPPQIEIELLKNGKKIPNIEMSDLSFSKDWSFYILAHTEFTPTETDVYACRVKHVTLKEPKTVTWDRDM

soluble monkey FcRn [6] = molecular target: T1, soluble monkey FcRn; assay: Biacore, FcRn on chip, pH 7.4
[7] = molecular target: T2, soluble human FcRn (extra-cellular …); assay: Biacore, FcRn on chip, pH 7.4

T1 sequence (Q8SPV9 24-297, chain 1 of 2): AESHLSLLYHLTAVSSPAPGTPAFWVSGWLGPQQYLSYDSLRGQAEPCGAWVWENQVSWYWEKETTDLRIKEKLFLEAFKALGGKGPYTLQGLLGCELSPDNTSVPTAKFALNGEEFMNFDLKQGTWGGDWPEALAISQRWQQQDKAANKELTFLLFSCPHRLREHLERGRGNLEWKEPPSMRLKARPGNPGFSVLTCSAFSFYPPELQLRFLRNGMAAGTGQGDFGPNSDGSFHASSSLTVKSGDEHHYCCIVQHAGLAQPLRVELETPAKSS
T1 sequence (Q8SPW0 21-119, chain 2 of 2): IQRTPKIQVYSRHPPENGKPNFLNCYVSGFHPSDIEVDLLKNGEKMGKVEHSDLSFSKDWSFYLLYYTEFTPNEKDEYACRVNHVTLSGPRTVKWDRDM

Kd (soluble monkey FcRn [1]): 3.23 nM | koff (soluble monkey FcRn [1]): 0.000552 s⁻¹ | Kd [2]: 1.17 nM | koff [2]: 0.000176 s⁻¹ | koff [3]: 1.45e-06 s⁻¹ | binding result [4]: binds | binding result [5]: no binding | Kd (soluble monkey FcRn [6]): 3.24 nM | koff (soluble monkey FcRn [6]): 0.000247 s⁻¹ | Kd [7]: 0.16 nM
B1: 3B3.11 (antibody)
heavy: VKLQESGPELVKPGASVKISCKASGYAFSRSWMNWVKQRPGQGLEWIGRIHPGDGDTNYNGKFKGKATLTVAKSSSTAYMQLSSLTSVDSAVYFCANEGSPYFDYWGQGTTLTVSSAKTTPPSVYPLAPGSAAQTNSMVTLGCLVKGYFPEPVTVTWNSGSLSSGVHTFPAVLQSDLYTLSSSVTVPSSTWPSETVTCNVAHPASSTKVDKKLE
light: DIQLTQSPTTVAASPGEKITITCSASSSISSNYLHWYQQKPGFSPKLLIYRTSNLASGVPARFSGSGSGTSYSLTIGTMEAEDVATYYCQQGSNIPLTFGAGTKLELKRADAAPTVSIFPPSSEQLTSGGASVVCFLNNFYPKDINVKWKIDGSERQNGVLNSWTDQDSKDSTYSMSSTLTLTKDEYERHNSYTCEATHKTSTSPIVKSFNKNE
notes: also called mAb 3B3.11
